B1: biotinylated 24-mer GRIP1 peptide (Biotinyl-GSTHGTSLKEKHKILHRLLQDSSS-NH2) (peptide)
peptide: Biotin-GSTHGTSLKEKHKILHRLLQDSSS-NH2
SMILES: CC[C@H](C)[C@H](NC(=O)[C@H](CCCCN)NC(=O)[C@H](Cc1c[nH]cn1)NC(=O)[C@H](CCCCN)NC(=O)[C@H](CCC(=O)O)NC(=O)[C@H](CCCCN)NC(=O)[C@H](CC(C)C)NC(=O)[C@H](CO)NC(=O)[C@@H](NC(=O)CNC(=O)[C@H](Cc1c[nH]cn1)NC(=O)[C@@H](NC(=O)[C@H](CO)NC(=O)CNC(=O)CCCC[C@@H]1SC[C@@H]2NC(=O)N[C@@H]21)[C@@H](C)O)[C@@H](C)O)C(=O)N[C@@H](CC(C)C)C(=O)N[C@@H](Cc1c[nH]cn1)C(=O)N[C@@H](CCCNC(=N)N)C(=O)N[C@@H](CC(C)C)C(=O)N[C@@H](CC(C)C)C(=O)N[C@@H](CCC(N)=O)C(=O)N[C@@H](CC(=O)O)C(=O)N[C@@H](CO)C(=O)N[C@@H](CO)C(=O)N[C@@H](CO)C(N)=O
notes: Synthetic (Mimotopes #814201), immobilized on a streptavidin coated SA-chip; also called biotinylated GRIP1 peptide; immobilized GRIP1 peptide
B2: (His)6ERα-LBD301-553 (receptor, UniProt P03372 301-553, looked up)
chain: SKKNSLALSLTADQMVSALLDAEPPILYSEYDPTRPFSEASMMGLLTNLADRELVHMINWAKRVPGFVDLTLHDQVHLLECAWLEILMIGLVWRSMEHPGKLLFAPNLLLDRNQGKCVEGMVEIFDMLLATSSRFRMMNLQGEEFVCLKSIILLNSGVYTFLSSTLKSLEEKDHIHRVLDKITDTLIHLMAKAGLTLQQQHQRLAQLLLILSHIRHMSNKGMEHLYSMKCKNVVPLYDLLLEMLDAHRLHAPT
notes: Control protein, expressed in E. coli, purified by Ni-NTA and size exclusion; Tested alone, after preincubation with E2 (10 µM) and with the antagonist BA31257; also called ER-LBD; not shown: (His)6 tag

Test [1] deals with T1, (His)6RORa-LBD269-556 (Homo sapiens, UniProt P35398).
T1 construct: Extraction is performed by mixing 2 ml of a solution containing (His)6RORa-LBD269-556 at 4.6 mg/ml; made in house; host or cells: Sf9 insect cells (baculovirus)
T1 sequence (P35398 269-556 isoform P35398-1): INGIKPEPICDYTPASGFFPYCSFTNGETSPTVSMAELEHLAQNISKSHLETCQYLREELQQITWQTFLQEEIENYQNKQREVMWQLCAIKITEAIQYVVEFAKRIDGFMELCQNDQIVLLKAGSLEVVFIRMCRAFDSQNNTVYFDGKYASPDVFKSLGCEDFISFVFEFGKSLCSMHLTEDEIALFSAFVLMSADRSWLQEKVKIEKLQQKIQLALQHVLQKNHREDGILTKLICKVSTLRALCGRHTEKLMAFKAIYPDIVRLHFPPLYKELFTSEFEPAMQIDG
In words: GC-MS of the hexane extract of (His)6RORa-LBD269-556 (identification of bound ligands). The settings on record: GC/MS after BSTFA derivatization, protein from Sf9 cells. The method, then: Extraction is performed by mixing 2 ml of a solution containing (His)6RORa-LBD269-556 at 4.6 mg/ml and 2 ml of hexane and shaking for 1 minute. The aqueous phase is extracted a second time using the same procedure. The organic phases are pooled and evaporated to dryness under nitrogen. The extract is dissolved in […] pyridine. An aliquot of 10 ml is derivatized with 5 ml N,O-bistrimethylsilyl-trifluoroacetamide (BSTFA) at 60° C. for 30 min. Reference compounds cholesterol and 7-dehydrocholesterol (Sigma) are derivatized following the same procedure. For structure elucidation, the underivatized and the derivatized sample and reference compounds are analyzed by GC/MS, respectively.
The GC/MS system consists of a Carlo Erba Mega 5160 gas chromatograph, which is coupled to a Finnigan TSQ-700 mass spectrometer equipped with an electron impact ion source (EI). The ion source is heated to a temperature of 150° C., filament current is 20 mA, electron multiplier voltage 1000V, and the conversion dynode is set to 15 kV. The scan range is m/z 100-700 with a scan time of 2 seconds. The gas chromatographic separation is performed on a 10 m×0.2 mm Duran glass column coated with a […] film of SDPE-08 using hydrogen as carrier gas at a constant flow rate of 2.5 ml/min. The temperature program is set to 100-330° C. at a rate of 6° C./min. The GC/MS interface temperature is set to 350° C. […]

The target of test [2] is T2, (His)6RORa-LBD304-556 (Homo sapiens, UniProt P35398).
T2 construct: Crystals are obtained for the construct (His)6RORa-LBD304-556 and diffraction data are collected to 1.88 Å; 6xHis (N); made in house; host or cells: Sf9 insect cells (baculovirus)
T2 sequence (P35398 304-556 isoform P35398-1): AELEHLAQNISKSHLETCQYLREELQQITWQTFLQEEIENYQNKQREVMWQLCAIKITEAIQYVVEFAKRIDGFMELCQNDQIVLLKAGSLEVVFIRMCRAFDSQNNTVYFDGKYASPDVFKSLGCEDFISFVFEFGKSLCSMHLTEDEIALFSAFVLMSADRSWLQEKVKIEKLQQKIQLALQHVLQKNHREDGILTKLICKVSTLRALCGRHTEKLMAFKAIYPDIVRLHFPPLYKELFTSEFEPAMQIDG
In words: X-ray crystallography of (His)6RORa-LBD304-556 (ligand in the ligand binding pocket). The settings on record: 1.88 Å diffraction data. The text has this:
Crystals are obtained for the construct (His)6RORa-LBD304-556 and diffraction data are collected to 1.88 Å at the synchrotron (SNBL, ESRF Grenoble). The structure is solved ab initio with a Hg-derivative.
The excellent fit to the electron density allows the identification of the ligand to be cholesterol. […] Based on the X-ray structure, proposals are made for cholesterol derivatives, and in particular cholesterol sulfate is proposed as a ligand with a higher affinity to RORa than cholesterol, because of the electrostatic interactions with two Arg-side chains at the hydrophilic end of the LBP. Confirmation of the presence of cholesterol and comparative binding studies between cholesterol and cholesterol sulfate are further achieved by mass spectrometry on construct (His)6RORa-LBD269-556.

The target in test [3] is biotinylated 24-mer GRIP1 peptide (Biotinyl-…-NH2) (mouse). In words: Biacore SPR, biotinylated peptide on streptavidin SA-chip, RORα-LBD injected. For orientation: In SPR one partner is held on a chip, and binding of the other changes the refractive index at the surface.
Test [4] has as its target B2. In words: Biacore SPR, biotinylated peptide on SA-chip, ER-LBD without added ligand (basal).
For test [5], the target named is B2. In words: Biacore SPR, biotinylated peptide on SA-chip, ER-LBD preincubated with E2 (10 µM).
Test [6] addresses B1. In words: Biacore SPR, ER-LBD preincubated with E2 (10 µM) against ER-LBD without ligand.
Test [7] has as its target T3, ERα-LBD / GRIP1 peptide interaction (Homo sapiens, UniProt P03372).
T3 construct: Control proteins (His)6ERα-LBD301-553 and (His)6cytohesin-1 are cloned and expressed in E. coli; (His)6; made in house; host or cells: E. coli
T3 sequence (P03372 301-553): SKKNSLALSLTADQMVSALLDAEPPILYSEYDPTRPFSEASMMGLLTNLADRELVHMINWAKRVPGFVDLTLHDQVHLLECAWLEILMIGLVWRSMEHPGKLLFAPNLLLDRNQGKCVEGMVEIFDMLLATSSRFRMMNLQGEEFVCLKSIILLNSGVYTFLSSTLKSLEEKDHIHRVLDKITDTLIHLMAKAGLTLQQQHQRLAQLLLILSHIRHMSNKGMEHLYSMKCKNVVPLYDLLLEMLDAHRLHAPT
Put plainly: Biacore binding assay of (His)6ERa-LBD301-553 to immobilized GRIP1 peptide (positive control). The settings on record: basal level, no ligand; read-out: apparent Kd of ERa-LBD binding to immobilized GRIP1 peptide.

The target of test [8] is (His)6RORα-LBD269-556 (human) (UniProt P35398). In words: Biacore SPR competition: free 20-mer peptide inhibits binding of RORα-LBD to the immobilized 24-mer GRIP1 peptide.

Where no end group is shown, it is not given here. The star is where a group is joined. Biotin = O=C1N[C@H]2[C@H](CS[C@H]2CCCCC(=O)*)N1

On to `CC(C)CCC[C@@H](C)[C@H]1CC[C@H]2[C@@H]3CC=C4C[C@@H](O)CC[C@]4(C)[C@H]3CC[C@]12C` [Cholesterol], for which the “SIC-% of compound in the extract of (His)6RORa-LBD269-556” value in test [1] worked out at 77.4%. Further, the “ligand found in the LBP by electron density” value in test [2] was “unambiguous identification of the ligand as cholesterol”.
For the molecule “(His)6RORα-LBD269-556 (from UniProt P35398 269-523) (receptor)”, the Kd in test [3] came to 241 nM.
Turning to `CC(C)CCC[C@@H](C)[C@H]1CC[C@H]2C3=CC=C4C[C@@H](O)CC[C@]4(C)[C@H]3CC[C@]12C` [7-Dehydrocholesterol], the “SIC-% of compound in the extract of (His)6RORa-LBD269-556” value in test [1] amounted to 18.3%.
Take B1: the Kd in test [4] was approximately 450 nM; in test [5], approximately 70 nM.
Take B2: in test [6], the “fold increase of binding affinity” value was determined as 6.5 fold.

B3: (His)6ERa-LBD301-553: control protein, His-tagged ERα ligand binding domain 301-553, cloned and expressed in E. coli (protein)
chain: SKKNSLALSLTADQMVSALLDAEPPILYSEYDPTRPFSEASMMGLLTNLADRELVHMINWAKRVPGFVDLTLHDQVHLLECAWLEILMIGLVWRSMEHPGKLLFAPNLLLDRNQGKCVEGMVEIFDMLLATSSRFRMMNLQGEEFVCLKSIILLNSGVYTFLSSTLKSLEEKDHIHRVLDKITDTLIHLMAKAGLTLQQQHQRLAQLLLILSHIRHMSNKGMEHLYSMKCKNVVPLYDLLLEMLDAHRLHAPT
modifications: left off: small tags and cut ends
Turning to B3, the Kd in test [7] was approximately 450 nM.
By IC50 is commonly meant the concentration that gives 50% inhibition. In test [8], GTSLKEKHKILHRLLQDSSS (not fully specified) [non-biotinylated 20-mer GRIP1 peptide …] returned a half-inhibitory concentration (IC50) of 3000 nM.

Values taken from patent publication US20050176062A1, “Method of identifying ligands for nuclear receptors” (priority 2002, published 2005).
